Substrate in this series: CC(=O)Oc1ccc([N+](=O)[O-])cc1
Nature of the series: 4-nitrophenol release, Lineweaver-Burk plot. The class given is biochemical, Penicillium chrysogenum. To be noted: pH 7, 40 °C, pNPA 0.2-2 mM.

B1: rPcAxe (Penicillium chrysogenum) (protein)
chain: AASSGCGKQPTLTNGVHTINGRQYILKVPDNYDSNKPHHLVFGLHWRGGNMNSVANGDSIQPWYGLESRAQGSAILVSPDGKNAGWANTNGEDVALIDAIIQQVEGDLCVDSSSRFATGFSWGGGMSYALACSRAKEFKAVSVLSGGLISGCEGGYDPIAYLGIHGIDDQVLPIDEGVTLANKFVGNNKCQPTNIGKPASGSGGFVRSDFQGCSKPVSFIAYDGGHVGAPLGVGSSLAPDATWEFFMAA
The Km is the substrate concentration at which the rate is half of its maximum. Consider B1, for which the Km was determined as 465 µM.

The values are drawn from publication PMC5615437, “A novel bifunctional acetyl xylan esterase/arabinofuranosidase from Penicillium chrysogenum P33 enhances enzymatic hydrolysis of lignocellulose” (Microbial Cell Factories, 2017).
